# According to patent US10232056B2, “Method for measuring toxicity of human CSF” (KYOWA HAKKO KIRIN CO., LTD., priority 2014, dated 2019):
# B1: 6E4HV0LV0: anti-Aβ oligomer humanized antibody, VH SEQ ID NO: 1, VL SEQ ID NO: 2, produced according to WO2011/016567 (antibody, V domains shown)
# VH: QVQLVQSGAEVKKPGASVKVSCKASGYTFTSYWMHWVRQAPGQGLEWMGEINPRNGGTNNNENFKRRVTITADTSTSTAYMELSSLRSEDTAVYYCARDGNYDPFAYWGQGTLVTVSS
# VL: DIVMTQSPLSLPVTPGEPASISCRSSQSLVHSNGNTYLHWYLQKPGQSPQLLIYKVSNRFSGVPDRFSGSGSGTDFTLKISRVEAEDVGVYYCSQSTHVPPYTFGQGTKLEIK
# Columns and labels:
# ICR mice [1] = experiment: Effect of anti-Aβ antibody pretreatment of AD patient CSF on mouse cognitive function impairment (Y-maze test, Example 5); type: in vivo; conditions: 10 μl intraventricular, FIG. 5
# Method: For the purpose of evaluating a sample that more accurately reflects the actual clinical sample, the cognitive function of mice administered with an AD patient CSF pretreated with 6E4HV0LV0 was measured by Y-maze test.
# 6E4HV0LV0 was added to AD patient CSF (Precision Mod) to make the final concentration 1 ng/ml, 10 ng/ml, or 100 ng/ml, and the mixture was incubated at room temperature for about 1 hour.
# Artificial cerebrospinal fluid [artificial spinal fluid (Otsuka Pharmaceutical Co., Ltd.) supplemented with 0.02 w/v % human serum albumin (Sigma-Aldrich)](hereinafter, “vehicle”) was added to AD patient CSF or physiological saline (hereinafter, “Sham”), and the mixture was incubated at room temperature. The prepared sample was preserved at −80° C., and used for the experiment after being thawed at room temperature on the day of the Y-maze testing.
# The sample (10 μl each) was administered into the cerebral ventricles of ICR mice under isoflurane anesthesia, and each mouse was tested by Y-maze test in the same manner as in Example 1 to determine spontaneous alternation (%). Each sample was administrated in 5 μl dose into each the left and right cerebral ventricles of mice.
# In the following, the sample with the AD patient CSF plus the vehicle will be identified by the notation “vehicle-AD CSF”. Similar notations are used for other samples.
# ICR mice [2] = experiment: Effect of anti-Aβ antibody intravenous administration on mouse cognitive function impairment by AD patient CSF (Y-maze test, Example 4); type: in vivo; conditions: next day 10 μl AD patient CSF intraventricular, FIG. 4
# Method: Next, mice that had intravenous administration of anti-Aβ oligomer antibody were measured for changes in cognitive function after AD patient CSF administration, using a Y-maze test. As the anti-Aβ oligomer antibody, an anti-Aβ oligomer humanized antibody 6E4HV0LV0 was produced according to the method disclosed in WO2011/016567 and known methods, and used in the experiment.
# ICR mice were intravenously administered with 3 mg/kg of human IgG4 (Sigma-Aldrich), or 0.3 mg/kg, 1 mg/kg, or 3 mg/kg of 6E4HV0LV0.
# On the next day, 10 μl of physiological saline (hereinafter, “Sham”) or the same amount of AD patient CSF (Precision Med) was administered into the cerebral ventricles of the mice under isoflurane anesthesia. Each mouse was then tested by Y-maze test in the same manner as in Example 1 to determine spontaneous alternation (%). The AD patient CSF and the physiological saline were administrated in 5 μl dose into each of the left and right cerebral ventricles.
# In the following, mice that had intravenous administration of human IgG4, and intraventricular administration of Sham will be identified by using the notation “human IgG4 i.v.-Sham administered group.” Similar notations are used for mice administered with other samples.
# ICR mice [3] = experiment: Blind measurement of changes in cognitive function of mice after 6E4HV0LV0 pretreatment of CSF (Y-maze test, Example 6); type: in vivo, mouse; conditions: for Percentage improvement by 6E4HV0LV0 treatment (%): 10 μl intraventricular; for improvement of spontaneous alternation by 6E4HV0LV0 pretreatment: 10 ng/ml
# Method: The cognitive function of mice administered with multiple normal CSFs or AD patient CSFs was measured in blind experiment by performing a Y-maze test in the same manner as in Example 1. The effect of 6E4HV0LV0 pretreatment was also examined at the same time. The experiment was conducted by separating testers who is responsible for dispensing normal CSFs or AD patient CSFs and preparing a 6E4HV0LV0-pretreated AD patient CSF for blind experiment, and who is responsible for administering the samples to mice, and conducting the Y-maze test.
# Tester (A) randomly assigned numbers to the dispensed normal CSFs (Precision Med) and AD patient CSFs (Precision Med) for blind experiment. For the AD patient CSFs, samples were also prepared by adding 6E4HV0LV0 to each dispensed CSF to make the final concentration 10 ng/ml, and incubating the mixture at room temperature for about 1 hour. The dispensed and prepared CSF samples were all preserved at −80° C. until the day of the Y-maze testing.
# On the day of the Y-maze testing, tester (B) received the samples prepared by tester (A) for blind experiment, and thawed the samples at room temperature. Each sample (10 μl) or physiological saline (10 μl; hereinafter, “Sham”) was administered into the cerebral ventricles of ICR mice under isoflurane anesthesia, and the mice were tested by Y-maze test in the same manner as in Example 1 to determine spontaneous alternation (%). The sample and the physiological saline were administrated in 5 μl dose into each of the left and right cerebral ventricles of mice.
# A Y-maze test that used the AD patient CSFs pretreated with 6E4HV0LV0 was conducted at the same time. Percentage improvement of mouse spontaneous alternation by 6E4HV0LV0 pretreatment was calculated for each mouse by using the Formula (3) below. The results are shown under the column heading “Percentage improvement by 6E4HV0LV0 treatment (%)” in Table 1. Percentage improvement (%) of mouse spontaneous alternation by 6E4HV0LV0 pretreatment={(spontaneous alternation of mouse administered with AD patient CSF pretreated with 6E4HV0LV0)−(spontaneous alternation of mouse administered with the same AD patient CSF without 6E4HV0LV0 pretreatment)}/{(spontaneous alternation of Sham administered group)−(spontaneous alternation of mouse administered with the same AD patient CSF without 6E4HV0LV0 pretreatment)}×100 Formula (3)
molecule,measurement,setting,value
B1,spontaneous alternation compared to the vehicle-AD CSF administered group,ICR mice [1]; AD patient CSF pretreated at final concentration of 10 ng/ml or 100 ng/ml,higher
same,spontaneous alternation compared to the vehicle-Sham administered group,ICR mice [1]; AD patient CSF pretreated at final concentration of 100 ng/ml,recovering to the same levels
same,spontaneous alternation compared to the human IgG4 i.v.-AD CSF administered group,ICR mice [2]; 3 mg/kg i.v.,significantly higher
same,spontaneous alternation compared to the human IgG4 i.v.-Sham administered group,ICR mice [2]; 3 mg/kg i.v.,recovering to the same levels
same,"spontaneous alternation, dose response","ICR mice [2]; 6E4HV0LV0 0.3, 1 or 3 mg/kg i.v.",increased with increase in the dose
same,Percentage improvement by 6E4HV0LV0 treatment (%),ICR mice [3]; AD patient CSF 8006_Visit 3 pretreated with 10 ng/ml,80.2%
same,Percentage improvement by 6E4HV0LV0 treatment (%),ICR mice [3]; AD patient CSF 8014_Visit 4 pretreated with 10 ng/ml,59.7%
same,Percentage improvement by 6E4HV0LV0 treatment (%),ICR mice [3]; AD patient CSF 8026_Visit 2 pretreated with 10 ng/ml,14.5%
same,Percentage improvement by 6E4HV0LV0 treatment (%),ICR mice [3]; AD patient CSF 8029_Visit 2 pretreated with 10 ng/ml,−11.8%
same,Percentage improvement by 6E4HV0LV0 treatment (%),ICR mice [3]; AD patient CSF 8056_Visit 9 pretreated with 10 ng/ml,86.8%
same,Percentage improvement by 6E4HV0LV0 treatment (%),ICR mice [3]; AD patient CSF 8057_Visit 8 pretreated with 10 ng/ml,59.3%
same,Percentage improvement by 6E4HV0LV0 treatment (%),ICR mice [3]; AD patient CSF 8060_Visit 6 pretreated with 10 ng/ml,46.0%
same,Percentage improvement by 6E4HV0LV0 treatment (%),ICR mice [3]; AD patient CSF 8061_Visit 5 pretreated with 10 ng/ml,65.6%
same,Percentage improvement by 6E4HV0LV0 treatment (%),ICR mice [3]; AD patient CSF 8076_Visit 8 pretreated with 10 ng/ml,68.3%
same,Percentage improvement by 6E4HV0LV0 treatment (%),ICR mice [3]; AD patient CSF 8091_Visit 5 pretreated with 10 ng/ml,56.3%
same,Percentage improvement by 6E4HV0LV0 treatment (%),ICR mice [3]; AD patient CSF 8092_Visit 3 pretreated with 10 ng/ml,87.7%
same,Percentage improvement by 6E4HV0LV0 treatment (%),ICR mice [3]; AD patient CSF 8108_Visit 6 pretreated with 10 ng/ml,82.0%
same,Percentage improvement by 6E4HV0LV0 treatment (%),ICR mice [3]; AD patient CSF 8109_Visit 5 pretreated with 10 ng/ml,90.7%
same,Percentage improvement by 6E4HV0LV0 treatment (%),ICR mice [3]; AD patient CSF 8189_Visit 3 pretreated with 10 ng/ml,83.1%
same,Percentage improvement by 6E4HV0LV0 treatment (%),ICR mice [3]; AD patient CSF 8211_Visit 2 pretreated with 10 ng/ml,90.0%
same,improvement of spontaneous alternation by 6E4HV0LV0 pretreatment,ICR mice [3]; in 6 out of the 15 AD patient CSF samples,≥ 40%
same,improvement of spontaneous alternation by 6E4HV0LV0 pretreatment,ICR mice [3]; in 7 out of the 15 AD patient CSF samples,≥ 80%
same,effect of 6E4HV0LV0 pretreatment on cognitive function impairment by normal CSF,ICR mice [3]; the one normal CSF (1 out of 11) that impaired cognitive function,did not improve
